From the supplement of paper PMC10567573 come the findings set out here.

Sequences and labels used below:
B1: CCDC89 (parent)
chain: LNAELEEKMMQEAEKLKAQGEYSR
B2: CCDC6 (parent)
chain: FTPPTSLTRAGMSYYNSPGLHVQH
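Further: lentivirally expressed fusions sorted by FACS into six bins by GFP to DsRed ratio, PSI derived from sequencing read proportions per bin multiplied by bin number.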

Variants of B1 are the subject of the first data set. Nature of the data set: protein stability index of a GFP-peptide fusion (GPS, HEK-293T) (PSI 1-6); higher = more stable. The following applies: c terminus: a fixed tail appended.
Consider LNAELEEKMMQEAEKLKAMGEYSR, for which the protein stability index stood at 4.13.
LNAELEEKMMQEAEKLKAPGEYSR: the protein stability index is 5.12.
Still for that read-out and setting: the figure for LNAELEEKMMQEAEKLKANGEYSR is 4.82; for LNAELEEKMMQEAEKLKALGEYSR it is 2.99.
Still for that read-out and setting: the result for LNAELKEKMMQEAEKLKAQGEYSR reads 4.64; that for LNAELLEKMMQEAEKLKAQGEYSR, 2.68.
Still for that read-out and setting: the result for LNAELEEKMMQEAEKLKAQGEYFR reads 4.75; that for LNAELEEKMMQEAEKLKAQGEYDR, 5.7.
With LNAELEEKMMQEAEKLKAQGEYAR, the protein stability index came to 4.62.
The same measure, in the same setting: the figure for LNAELEEKMMQEAEKGKAQGEYSR is 5.09; for LNAELEEKMMQEAEKIKAQGEYSR it is 5.82.
The same measure, in the same setting: the result for LNAELEEKMMQEAEKQKAQGEYSR reads 4.65; that for LNAELEEKMMQEKEKLKAQGEYSR, 5.08; that for LNAELEEKMMQEGEKLKAQGEYSR, 4.84.
The same measure, in the same setting: the figure for LNAELEEYMMQEAEKLKAQGEYSR is 4.46.
Take CNAELEEKMMQEAEKLKAQGEYSR: the protein stability index came out at 5.32.
As for YNAELEEKMMQEAEKLKAQGEYSR, the protein stability index came to 4.95.
The same measure, in the same setting: the figure for LNAELEEKMMQEAEKLKAQGEYSP is 5.48.
Consider LNAELEEKMMQEAEKLKAQGEYSC, for which the protein stability index was found to be 5.37.
As for LNAELEEKMMQEAEKLKAQGEYSS, the protein stability index came to 5.38.
On the same count and under the same terms, the result for LNAELEEKMMQEAEKLKAQGEYSA reads 5.49.
On the same count and under the same terms, the result for LNAELEEKMMQEAEKLKAQVEYSR reads 5.31.
For the variant LNAELEEKMMQEAEKLKAQNEYSR, the protein stability index worked out at 4.99.
Take LNAELEEKMMQEAEKLKAQLEYSR: the protein stability index stood at 2.99.
Turning to LNEELEEKMMQEAEKLKAQGEYSR, the protein stability index stood at 4.45.
As to LNQELEEKMMQEAEKLKAQGEYSR, the protein stability index came to 4.97.
On the same count and under the same terms, the result for LNTELEEKMMQEAEKLKAQGEYSR reads 5.63.
As for LNAELEEKMMHEAEKLKAQGEYSR, the protein stability index turned out to be 4.84.
In the case of LNAELEEKMMQPAEKLKAQGEYSR, the protein stability index came to 5.4.
Regarding LNAELEEKMMQEAEYLKAQGEYSR, the protein stability index is 4.3.
With LNAELEEKMMQEAEALKAQGEYSR, the protein stability index came out at 5.41.
Still for that read-out and setting: the figure for LNAELEEKMSQEAEKLKAQGEYSR is 5.65.
On to LNAELEEKMMQEAEKLVAQGEYSR, for which the protein stability index turned out to be 4.4.
Same read-out and setting: the figure for LNAELESKMMQEAEKLKAQGEYSR is 4.01; for LNAELEYKMMQEAEKLKAQGEYSR it is 4.61; for LNAELEVKMMQEAEKLKAQGEYSR it is 5.
Still for that read-out and setting: the result for LNAHLEEKMMQEAEKLKAQGEYSR reads 4.4; that for LWAELEEKMMQEAEKLKAQGEYSR, 2.71.
Still for that read-out and setting: the result for LHAELEEKMMQEAEKLKAQGEYSR reads 5.42.
In the case of LNAELEEKMMQEAEKLKAQGHYSR, the protein stability index was determined as 4.47.
Same read-out and setting: the figure for LNAELEEKMMQEAGKLKAQGEYSR is 3.59.
Take LNAELEEKMMQEADKLKAQGEYSR: the protein stability index is 5.19.

The variants in another data set derive from B2. Described as above. The following applies: c terminus: a fixed tail appended.
As for FTPPTSWTRAGMSYYNSPGLHVQH, the protein stability index amounted to 2.33.
Turning to FTPPTSPTRAGMSYYNSPGLHVQH, the protein stability index is 2.33.
Same read-out and setting: the figure for FTPPTSITRAGMSYYNSPGLHVQH is 1.41; for FTPPTSMTRAGMSYYNSPGLHVQH it is 2.29; for FTPPTSSTRAGMSYYNSPGLHVQH it is 1.7.
Still for that read-out and setting: the result for FTPPTSFTRAGMSYYNSPGLHVQH reads 2.4; that for FTPPTSLTQAGMSYYNSPGLHVQH, 2.54; that for FTPPTSLTMAGMSYYNSPGLHVQH, 1.81.
Still for that read-out and setting: the figure for FTPPTSLTVAGMSYYNSPGLHVQH is 1.58; for FTPPTSLTTAGMSYYNSPGLHVQH it is 1.47.
As to FTPPTSLTGAGMSYYNSPGLHVQH, the protein stability index was found to be 1.59.
Same read-out and setting: the figure for FTPPTSLTEAGMSYYNSPGLHVQH is 2.63; for FTPPTSLTDAGMSYYNSPGLHVQH it is 2.77.
Regarding FTPPTSLTCAGMSYYNSPGLHVQH, the protein stability index was 2.58.
As for FTPPTSLTAAGMSYYNSPGLHVQH, the protein stability index turned out to be 2.1.
For the variant FTPPTSLTRADMSYYNSPGLHVQH, the protein stability index amounted to 1.75.
The same measure, in the same setting: the result for FTPPTSLTRANMSYYNSPGLHVQH reads 2.46; that for FTPPTSLTRAVMSYYNSPGLHVQH, 1.56; that for FTPPTSLTRATMSYYNSPGLHVQH, 2.17.
Still for that read-out and setting: the result for FTPPTSLTRAYMSYYNSPGLHVQH reads 2.12; that for FTPPTSLTRAMMSYYNSPGLHVQH, 1.91; that for FTPPTSLTRAGMSYYNSAGLHVQH, 2.28.
With FTPPTSLTRAGMSYYNSTGLHVQH, the protein stability index amounted to 2.11.
Regarding FTPPTSLTRAGMSYYNSYGLHVQH, the protein stability index turned out to be 2.87.
The same measure, in the same setting: the result for FTPPTSLTRAGMSYYNSVGLHVQH reads 2.27; that for FTPPTSLTRAGMSYYNSMGLHVQH, 1.73.
The same measure, in the same setting: the figure for FTPPTSLTRAGMSYYNSSGLHVQH is 1.87; for FTPPTSLTRAGMSYYNSWGLHVQH it is 2.62; for FTPPTSLTRAGMSYYNSCGLHVQH it is 1.21.
On the same count and under the same terms, the figure for FTPPTSLTRAGMSYYNSLGLHVQH is 1.22; for FTPPTSLTRAGMSYYNSPGLHVQA it is 1.56; for FTPPTSLTRAGMSYYNSPGLHVQS it is 1.8.
Regarding FTPPTSLTRAGMSYYNSPGLHVQR, the protein stability index amounted to 1.73.
Same read-out and setting: the figure for FTPPTSLTRAGMSYYNSPGLHVQW is 1.38; for FTPPTSLTRAGMSYYNSPGLHVQM it is 2.9; for FTPPTSLTRAGMSYYNSPGLHVQP it is 2.24.
Take FTPPTSLTRAGMSTYNSPGLHVQH: the protein stability index worked out at 2.33.
As to FTPPTSLTRAGMSRYNSPGLHVQH, the protein stability index worked out at 3.18.
Consider FTPPTSLTRAGMSIYNSPGLHVQH, for which the protein stability index was 1.64.
Take FTPPTSLTRAGMSNYNSPGLHVQH: the protein stability index was found to be 2.6.
Same read-out and setting: the figure for FTPPTSLTRAGMSHYNSPGLHVQH is 2.42; for FTPPTSLTRAGMSWYNSPGLHVQH it is 1.67; for FTPPTSLTRAGMSSYNSPGLHVQH it is 2.46.
As to FTPPTSLTRAGMDYYNSPGLHVQH, the protein stability index amounted to 1.43.
Consider FTPPTSLTRAGMPYYNSPGLHVQH, for which the protein stability index came out at 1.96.
The same measure, in the same setting: the figure for FTPPTSLTRAGMWYYNSPGLHVQH is 1.3; for FTPPTSLTRAGMEYYNSPGLHVQH it is 1.9.
Still for that read-out and setting: the figure for FTPPTSLTRAGMSYYNSPGLWVQH is 2.36.
Consider FTPPTSLTRAGMSYYNSPGLCVQH, for which the protein stability index worked out at 1.81.
Same read-out and setting: the result for FTPPTSLTRAGMSYYNSPGLNVQH reads 1.97.
Same read-out and setting: the result for FTPPTSLTRAGMSYYNSPGLEVQH reads 2.75; that for FTPPTSLTRAGMSYYNSPGLQVQH, 2.54.
